Where “and” joins values, the source holds several entries; their conditions need not be identical. Equal entries are not always repeated.
Columns and labels:
[1] = target: His-tagged recombinant human prosaposin (PSAP) (human) (UniProt P07602); experiment: ELISA
[2] = target: His-tagged recombinant human sortilin (human) (UniProt Q99523); experiment: ELISA
Chain of UniProt Q99523 (Q99523 78-755): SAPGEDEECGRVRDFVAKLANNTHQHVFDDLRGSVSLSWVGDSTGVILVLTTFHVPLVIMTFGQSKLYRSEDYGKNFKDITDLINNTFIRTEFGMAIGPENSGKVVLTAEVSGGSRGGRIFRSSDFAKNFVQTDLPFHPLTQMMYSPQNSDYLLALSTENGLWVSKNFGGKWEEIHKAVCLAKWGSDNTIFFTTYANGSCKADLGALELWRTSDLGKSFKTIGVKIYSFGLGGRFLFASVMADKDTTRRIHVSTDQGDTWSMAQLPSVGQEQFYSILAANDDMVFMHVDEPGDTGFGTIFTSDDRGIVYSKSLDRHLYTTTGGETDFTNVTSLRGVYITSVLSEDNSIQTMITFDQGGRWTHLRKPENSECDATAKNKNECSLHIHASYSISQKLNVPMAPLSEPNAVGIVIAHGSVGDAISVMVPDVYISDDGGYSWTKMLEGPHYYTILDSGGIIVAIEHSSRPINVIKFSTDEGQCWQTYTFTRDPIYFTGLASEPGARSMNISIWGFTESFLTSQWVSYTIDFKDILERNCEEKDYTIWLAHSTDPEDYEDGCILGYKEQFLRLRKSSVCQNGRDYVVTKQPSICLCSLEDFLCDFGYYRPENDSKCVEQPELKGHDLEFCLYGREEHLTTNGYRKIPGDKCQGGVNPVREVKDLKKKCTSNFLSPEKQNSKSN

Chain of UniProt P07602 (P07602 17-524): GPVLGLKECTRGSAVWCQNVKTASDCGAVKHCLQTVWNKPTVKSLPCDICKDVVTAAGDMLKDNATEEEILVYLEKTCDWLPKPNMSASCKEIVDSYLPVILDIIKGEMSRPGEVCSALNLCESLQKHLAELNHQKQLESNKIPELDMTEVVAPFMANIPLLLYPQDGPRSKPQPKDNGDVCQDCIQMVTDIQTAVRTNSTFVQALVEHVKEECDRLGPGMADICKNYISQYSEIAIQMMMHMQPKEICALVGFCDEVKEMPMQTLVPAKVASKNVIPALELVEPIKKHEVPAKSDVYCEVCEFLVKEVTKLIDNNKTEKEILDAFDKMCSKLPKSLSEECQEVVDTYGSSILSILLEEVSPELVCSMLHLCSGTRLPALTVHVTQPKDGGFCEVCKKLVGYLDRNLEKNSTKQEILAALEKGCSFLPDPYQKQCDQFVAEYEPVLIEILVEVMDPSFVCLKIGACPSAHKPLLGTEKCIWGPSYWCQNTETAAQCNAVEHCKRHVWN

“protein transport vehicle:PGRN (PTV:PGRN), expressed in Expi293 cells (Fc fusion)” was tested, and the EC50 [1] was 1.74 nM and 5.1 nM and the EC50 [2] was 2.2 nM and 0.47 nM.
For “Fc:PGRN (huPGRN fused to a normal Fc) (Fc fusion)”, the EC50 [1] was 1.14 nM and 3.9 nM and the EC50 [2] was 1.8 nM and 0.31 nM.
